{"source": "patent US20210380703A1", "about": "(RIGEL PHARMACEUTICALS, published 2021)", "binders": {"B1": {"name": "373_F08 (antibody, V domains shown)", "VH": "EVQLLESGGGLVQPGGSLRLSCAASGFTFSSYSMNWVRQAPGKGLEWVSGINYNGGYTSYADSVKGRFTISRDNSKNTLYLQMNSLRAEDTAVYYCARGANWHDTALDYWGQGTLVTVSS", "VL": "DIQMTQSPSSLSASVGDRVTITCRASQSILTYLNWYQQKPGKAPKLLIYAATSRASGVPSRFSGSGSGTDFTLTISSLQPEDFATYYCQQSYDTPLTFGGGTKVEIK"}, "B2": {"name": "369_C12 (antibody, V domains shown)", "VH": "B1 VH with S33G, S49A, G50N, T58K, S59G, N101T, A106H", "VL": "B1 VL with A55H"}, "B3": {"name": "370_C06 (antibody, V domains shown)", "VH": "B1 VH with S49A, G50N, T58K, N101T, A106H", "VL": "B1 VL with L33V, T52S, R54L, A55Q, D93S"}, "B4": {"name": "367_A02 (antibody, V domains shown)", "VH": "B1 VH with S30D, S33G, G50S, G55S, T58K, S59G, N101T, A106H", "VL": "B1 VL with L30I, T31S, A51V"}, "B5": {"name": "369_H12 (antibody, V domains shown)", "VH": "B1 VH with S49A, T58K, N101T, A106H", "VL": "B1 VL with L30V, L33V, L47V, T94S"}, "B6": {"name": "369_H08 (antibody, V domains shown)", "VH": "B1 VH with S49A, G55S, T58K, N101T, A106H", "VL": "B1 VL with T31S, L33V, L47V, R54L, D93E, T94S"}, "B7": {"name": "369_F09 (antibody, V domains shown)", "VH": "B1 VH with S33G, N35H, S49A, N101T, A106H", "VL": "B1 VL with L33V, T94S"}, "B8": {"name": "368_G03 (antibody, V domains shown)", "VH": "B1 VH with G55S, N101T", "VL": "B1 VL with T31S, L47V"}, "B9": {"name": "366_B12 (antibody, V domains shown)", "VH": "B1 VH with S49A, G55S, T58K, S59G, G99S", "VL": "B1 VL with L33V, T94N"}, "B10": {"name": "370_D04 (antibody, V domains shown)", "VH": "B1 VH with S30D, S49A, G50N, G55S, T58K, S59G, G99S", "VL": "B1 VL with L47V, T94N"}, "B11": {"name": "367_H11 (antibody, V domains shown)", "VH": "B1 VH with S33G, S49A, T58K, S59G, G99S", "VL": "B1 VL with L30I, T31S, L33V, L47V, D93N, T94S"}, "B12": {"name": "372_F09 (antibody, V domains shown)", "VH": "B1 VH with S30D, S49A, G50N, G55S, T58K, S59G, G99S", "VL": "B1 VL with L47V, R54L, D93S, T94S"}, "B13": {"name": "372_F03 (antibody, V domains shown)", "VH": "B1 VH with S33G, S49A, G99S", "VL": "B1 VL with T31S, L47V"}, "B14": {"name": "371_B07 (antibody, V domains shown)", "VH": "B1 VH with S30D, S49A, G99S", "VL": "B1 VL with L33V, D93E, T94L"}, "B15": {"name": "373_A10 (antibody, V domains shown)", "VH": "B1 VH with S33G, G55S, G99S", "VL": "B1 VL with T31S, L47V, T94L"}, "B16": {"name": "374_C10 (antibody, V domains shown)", "VH": "B1 VH with G50S, T58K, S59G, N101T, A106H", "VL": "B1 VL with L30V, R54L, D93N"}, "B17": {"name": "374_C06 (antibody, V domains shown)", "VH": "B1 VH with S30D, S31D, G50S, G55S, T58K, S59G, G99S", "VL": "B1 VL with L33V, D93N, T94S"}, "B18": {"name": "368_F03 (antibody, V domains shown)", "VH": "B1 VH with S30D, S49A, G55S, S59G, R98K, G99S", "VL": "B1 VL with L30I, T31S, L47V, A55H, T94S"}, "B19": {"name": "376_C06 (antibody, V domains shown)", "VH": "B1 VH with S33G, S49A, G99S, N101T", "VL": "B1 VL with T31S, L47V, T94S"}, "B20": {"name": "370_C03 (antibody, V domains shown)", "VH": "B1 VH with S33G, S49A, T58K, S59G, G99S", "VL": "B1 VL with A50Y, A51V, S53N, A55Q, D93S, T94S"}, "B21": {"name": "370_E09 (antibody, V domains shown)", "VH": "B1 VH with S30D, S31D, Y32S, N35H, G50N, S59G, R98K, G99S", "VL": "B1 VL with T31S, L33V, L47V, D93E, T94L"}, "B22": {"name": "372_A04 (antibody, V domains shown)", "VH": "B1 VH with S30D, G55S, G99S", "VL": "B1 VL with L47V, D93E"}, "B23": {"name": "374_C08 (antibody, V domains shown)", "VH": "B1 VH with S30D, S33G, G55S, T58K, G99S, N101T", "VL": "B1 VL with T31S, L33V, A51V, T94S"}, "B24": {"name": "374_D08 (antibody, V domains shown)", "VH": "B1 VH with S30D, S33G, G55S, S59G, G99S, A106H", "VL": "B1 VL with A55H, D93E, T94S"}, "B25": {"name": "365_E02 (antibody, V domains shown)", "VH": "B1 VH with S49A, G50N, R98K, G99S, N101T, A106H", "VL": "B1 VL with L30I, T31S, D93E, T94N"}, "B26": {"name": "369_F01 (antibody, V domains shown)", "VH": "B1 VH with S33G, T58K, G99S", "VL": "B1 VL with L33V, D93E, T94L"}, "B27": {"name": "373_D04 (antibody, V domains shown)", "VH": "B1 VH with S30D, G55S, T58K, S59G, G99S", "VL": "B1 VL with T31S, A55H, T94S"}, "B28": {"name": "369_G01 (antibody, V domains shown)", "VH": "B1 VH with G50N, G55S, T58K, G99S", "VL": "B1 VL with T31S, L33V, D93S, T94S"}, "B29": {"name": "369_H06 (antibody, V domains shown)", "VH": "B1 VH with S33G, S49A, G50N, T58K, G99S", "VL": "B1 VL with L30V, T31S, L33V"}, "B30": {"name": "370_A12 (antibody, V domains shown)", "VH": "B1 VH with S33G, S49A, G99S", "VL": "B1 VL with R54L, T94S"}, "B31": {"name": "374_E05 (antibody, V domains shown)", "VH": "B1 VH with S49A, G99S", "VL": "B1 VL with T31S, Y32F, L33V, L47V, D93N, T94L"}, "B32": {"name": "374_B04 (antibody, V domains shown)", "VH": "B1 VH with G50N, G55S, S59G, G99S", "VL": "B1 VL with L30V, T31S, A51V, D93E, T94S"}, "B33": {"name": "369_D02 (antibody, V domains shown)", "VH": "B1 VH with S31D, G50N, G55S, S59G, G99S", "VL": "B1 VL with T31S, L47V, A51V"}, "B34": {"name": "373_B04 (antibody, V domains shown)", "VH": "B1 VH with S33G, S49A, G55S, T58K, S59G, G99S", "VL": "B1 VL with D93E"}, "B35": {"name": "370_H01 (antibody, V domains shown)", "VH": "B1 VH with G55S, T58K, S59G, G99S", "VL": "B1 VL with L30I, T31S, A51V"}, "B36": {"name": "370_C05 (antibody, V domains shown)", "VH": "B1 VH with S49A, G55S, S59G, G99S", "VL": "B1 VL with T31S, L33V, L47V, D93N, T94S"}, "B37": {"name": "372_F08 (antibody, V domains shown)", "VH": "B1 VH with S31D, G50N, G55S, S59G, G99S", "VL": "B1 VL with L33V, L47V"}, "B38": {"name": "373_C02 (antibody, V domains shown)", "VH": "B1 VH with S30D, S31D, G55S, T58K, S59G, G99S", "VL": "B1 VL with T31S, L33V, D93N"}, "B39": {"name": "373_D10 (antibody, V domains shown)", "VH": "B1 VH with S30D, G50N, G55S, T58K, S59G, G99S", "VL": "B1 VL with T31S, L33V, T94L"}, "B40": {"name": "367_H06 (antibody, V domains shown)", "VH": "B1 VH with S33G, G50N, S59G, G99S, A106H", "VL": "B1 VL with L30I"}, "B41": {"name": "374_B06 (antibody, V domains shown)", "VH": "B1 VH with S30D, S49A, G55S, T58K, S59G, G99S, A106H", "VL": "B1 VL with L33V"}, "B42": {"name": "374_G05 (antibody, V domains shown)", "VH": "B1 VH with G50N, G55S, T58K, S59G, N101T, A106H", "VL": "B1 VL with L30I, T31S, T94L"}, "B43": {"name": "365_A12 (antibody, V domains shown)", "VH": "B1 VH with S33G, N35H, S49A, R98K, G99S, A106H", "VL": "B1 VL with L33V, A55H, D93E, T94N"}}, "note": "Substitutions are numbered along the chain they refer to."}
{"target": "ACVR2A on primary human myotubes (human, UniProt P27037 20-513)", "assay": "cell-based or functional assay"}
{"binder": "B1", "Phospho-SMAD3 Human Skeletal Muscle GDF8": 0.005}
{"binder": "B2", "Phospho-SMAD3 Human Skeletal Muscle GDF8": 0.0094}
{"binder": "B3", "Phospho-SMAD3 Human Skeletal Muscle GDF8": 0.0111}
{"binder": "B4", "Phospho-SMAD3 Human Skeletal Muscle GDF8": 0.159}
{"binder": "B5", "Phospho-SMAD3 Human Skeletal Muscle GDF8": 0.0303}
{"binder": "B6", "Phospho-SMAD3 Human Skeletal Muscle GDF8": 0.0308}
{"binder": "B7", "Phospho-SMAD3 Human Skeletal Muscle GDF8": 0.0325}
{"binder": "B8", "Phospho-SMAD3 Human Skeletal Muscle GDF8": 0.299}
{"target": "ACVR2A on primary human myotubes (human, UniProt P27037 20-513)", "assay": "cell-based or functional assay", "remark": "another data set of the same source"}
{"binder": "B9", "Phospho-SMAD3 Human Skeletal Muscle GDF8": 0.0392}
{"binder": "B10", "Phospho-SMAD3 Human Skeletal Muscle GDF8": 0.0074}
{"binder": "B11", "Phospho-SMAD3 Human Skeletal Muscle GDF8": 0.0703}
{"binder": "B12", "Phospho-SMAD3 Human Skeletal Muscle GDF8": 0.018}
{"binder": "B13", "Phospho-SMAD3 Human Skeletal Muscle GDF8": 0.0646}
{"binder": "B14", "Phospho-SMAD3 Human Skeletal Muscle GDF8": 0.0402}
{"binder": "B15", "Phospho-SMAD3 Human Skeletal Muscle GDF8": 0.0111}
{"binder": "B16", "Phospho-SMAD3 Human Skeletal Muscle GDF8": 0.0582}
{"binder": "B17", "Phospho-SMAD3 Human Skeletal Muscle GDF8": 0.0138}
{"binder": "B18", "Phospho-SMAD3 Human Skeletal Muscle GDF8": 0.812}
{"binder": "B19", "Phospho-SMAD3 Human Skeletal Muscle GDF8": 0.0107}
{"binder": "B20", "Phospho-SMAD3 Human Skeletal Muscle GDF8": 0.0029}
{"binder": "B21", "Phospho-SMAD3 Human Skeletal Muscle GDF8": 0.0093}
{"binder": "B22", "Phospho-SMAD3 Human Skeletal Muscle GDF8": 0.0193}
{"binder": "B23", "Phospho-SMAD3 Human Skeletal Muscle GDF8": 0.585}
{"binder": "B24", "Phospho-SMAD3 Human Skeletal Muscle GDF8": 0.23}
{"binder": "B25", "Phospho-SMAD3 Human Skeletal Muscle GDF8": 0.341}
{"binder": "B26", "Phospho-SMAD3 Human Skeletal Muscle GDF8": 0.0317}
{"binder": "B27", "Phospho-SMAD3 Human Skeletal Muscle GDF8": 0.0078}
{"binder": "B28", "Phospho-SMAD3 Human Skeletal Muscle GDF8": 0.0116}
{"binder": "B29", "Phospho-SMAD3 Human Skeletal Muscle GDF8": 0.0068}
{"binder": "B30", "Phospho-SMAD3 Human Skeletal Muscle GDF8": 0.0632}
{"binder": "B31", "Phospho-SMAD3 Human Skeletal Muscle GDF8": 0.0497}
{"binder": "B32", "Phospho-SMAD3 Human Skeletal Muscle GDF8": 0.0093}
{"binder": "B33", "Phospho-SMAD3 Human Skeletal Muscle GDF8": 0.0135}
{"binder": "B34", "Phospho-SMAD3 Human Skeletal Muscle GDF8": 0.0093}
{"binder": "B35", "Phospho-SMAD3 Human Skeletal Muscle GDF8": 0.0093}
{"binder": "B36", "Phospho-SMAD3 Human Skeletal Muscle GDF8": 0.0082}
{"binder": "B37", "Phospho-SMAD3 Human Skeletal Muscle GDF8": 0.023}
{"binder": "B38", "Phospho-SMAD3 Human Skeletal Muscle GDF8": 0.0083}
{"binder": "B39", "Phospho-SMAD3 Human Skeletal Muscle GDF8": 0.006}
{"binder": "B40", "Phospho-SMAD3 Human Skeletal Muscle GDF8": 0.108}
{"binder": "B41", "Phospho-SMAD3 Human Skeletal Muscle GDF8": 0.0407}
{"binder": "B42", "Phospho-SMAD3 Human Skeletal Muscle GDF8": 0.0132}
{"binder": "B43", "Phospho-SMAD3 Human Skeletal Muscle GDF8": 0.903}
